Laboratory results published in US20160376372A1 (VACCINEX, published 2016).

Key:
[1] = molecular target: human CD20 antigen (human) (UniProt P11836); assay: flow cytometry, EB1 cells (CD20 positive)
[2] = molecular target: human CD20 antigen (human) (UniProt P11836); assay: flow cytometry, Daudi cells (CD20 positive)
[3] = molecular target: human CD20 antigen (human) (UniProt P11836); assay: flow cytometry, EHEB cells (CD20 positive)
[4] = molecular target: human CD20 antigen (human) (UniProt P11836); assay: flow cytometry, Daudi cells (CD20 positive); remark: listed apart in the source
human CD20 antigen [5] = molecular target: T1, human CD20 antigen (human, UniProt P11836 1-297); assay: flow cytometry, Daudi cells (CD20 positive)
T1 construct: whole, on cells; also called Bp35; B1
T1 sequence (looked up): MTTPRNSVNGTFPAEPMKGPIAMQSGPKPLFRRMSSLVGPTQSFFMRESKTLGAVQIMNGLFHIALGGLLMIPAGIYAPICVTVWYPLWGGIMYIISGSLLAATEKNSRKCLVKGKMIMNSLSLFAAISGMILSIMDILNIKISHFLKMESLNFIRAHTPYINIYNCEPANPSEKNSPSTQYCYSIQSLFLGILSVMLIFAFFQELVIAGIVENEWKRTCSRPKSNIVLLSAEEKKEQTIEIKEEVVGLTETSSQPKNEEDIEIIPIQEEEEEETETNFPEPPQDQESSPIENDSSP
Experimental: (§1) Binding specificity was assessed by Flow Cytometry, which tabulates Mean Fluorescence Intensities (MFI) of staining on CD20 positive (CD20⁺) and CD20 negative cell lines.

human CD20 antigen [6] = molecular target: T1, human CD20 antigen; assay: flow cytometry, EB1 cells (CD20 positive)
Experimental: (§2) Binding specificity was assessed by Fluorometric Microvolume Assay Technology (FMAT, Applied Biosystems 8200 Cellular Detection System) and Flow Cytometry, which tabulates Mean Fluorescence Intensities (MFI) of staining on CD20 positive (CD20⁺) and CD20 negative cell lines.

human CD20 antigen [7] = molecular target: T1, human CD20 antigen; assay: flow cytometry, EHEB cells (CD20 positive)
Experimental: as §1

human CD20 antigen [8] = molecular target: T1, human CD20 antigen; assay: flow cytometry, CHO.CD20 cells (CD20 positive)
Experimental: as §1

human CD20 antigen [9] = molecular target: T1, human CD20 antigen; assay: flow cytometry, Daudi cells (CD20 positive); remark: listed apart in the source
Experimental: as §2

mAb 271 (rituximab-sequence antibody)
Mean Fluorescence Intensity (MFI) [1]: 429 MFI | Mean Fluorescence Intensity (MFI) [2]: 941 MFI | Mean Fluorescence Intensity (MFI) [3]: 130 MFI | Mean Fluorescence Intensity (MFI) [4]: 145 MFI

B1: optimized humanized mAb 1237 (antibody, V domains shown)
VH: QVQLVQSGAEVKKPGSSVKVSCKASGYTFTSYNMHWVRQAPGQGLEWIGAIYPGNGDTSYNQKFKGKATITADKSTSTAYMELSSLRSDDTAVYYCARSTYYAGDWNFNNWGQGTLVTVSS
VL: DIQMTQSPSSLSASVGDRVTITCRASSSVSYIHWFQQKPGKAPKPLIYAASSLQSGVPSRFSGSGSGTDYTLTISSLQPEDFATYYCQQWTSNPPTFGGGTKLEIK
notes: detected with anti-human Ig Fc
Mean Fluorescence Intensity (MFI) (human CD20 antigen [5]): 1370 MFI | Mean Fluorescence Intensity (MFI) (human CD20 antigen [6]): 395 MFI | Mean Fluorescence Intensity (MFI) (human CD20 antigen [7]): 161 MFI | Mean Fluorescence Intensity (MFI) (human CD20 antigen [8]): 106 MFI | Mean Fluorescence Intensity (MFI) (human CD20 antigen [9]): 132 MFI

B2: optimized humanized mAb 1652 (antibody, V domains shown)
VH: QVQLVQSGAEVKKPGSSVKVSCKASGYTFTSYNMHWVRQAPGQGLEWIGAIYPGNGATSYNQKFKGKATITADKSTSTAYMELSSLRSDDTAVYYCARSTYYAGDWNFNNWGQGTLVTVSS
VL: DIQMTQSPSSLSASVGDRVTITCRASSSVSYIHWFQQKPGKAPKPLIYAASSLQSGVPSRFSGSGSGTDYTLTISSLQPEDFATYYCQQWQSNPPTFGGGTKLEIK
Mean Fluorescence Intensity (MFI) (human CD20 antigen [5]): 1420 MFI | Mean Fluorescence Intensity (MFI) (human CD20 antigen [7]): 529 MFI | Mean Fluorescence Intensity (MFI) (human CD20 antigen [8]): 135 MFI

B3: optimized humanized mAb 1590 (antibody, V domains shown)
VH: QVQLVQSGAEVKKPGSSVKVSCKASGYTFTSYNMHWVRQAPGQGLEWIGAIYPGNGLTSYNQKFKGKATITADKSTSTAYMELSSLRSDDTAVYYCARSTYYAGDWNFNNWGQGTLVTVSS
VL: DIQMTQSPSSLSASVGDRVTITCRASSSVSYIHWFQQKPGKAPKPLIYAASSLQSGVPSRFSGSGSGTDYTLTISSLQPEDFATYYCQQWTSNPPTFGGGTKLEIK
Mean Fluorescence Intensity (MFI) (human CD20 antigen [5]): 1630 MFI | Mean Fluorescence Intensity (MFI) (human CD20 antigen [7]): 429 MFI | Mean Fluorescence Intensity (MFI) (human CD20 antigen [8]): 135 MFI

B4: optimized humanized mAb 1236 (antibody, V domains shown)
VH: QVQLVQSGAEVKKPGSSVKVSCKASGYTFTSYNMHWVRQAPGQGLEWIGAIYPGNGDTSYNQKFKGKATITADKSTSTAYMELSSLRSDDTAVYYCARSTYYGGDWNFNNWGQGTLVTVSS
VL: DIQMTQSPSSLSASVGDRVTITCRASSSVSYIHWFQQKPGKAPKPLIYAASSLQSGVPSRFSGSGSGTDYTLTISSLQPEDFATYYCQQWTSNPPTFGGGTKLEIK
notes: as for B1
Mean Fluorescence Intensity (MFI) (human CD20 antigen [6]): 409 MFI | Mean Fluorescence Intensity (MFI) (human CD20 antigen [9]): 145 MFI

B5: optimized humanized mAb 1588 (antibody, V domains shown)
VH: QVQLVQSGAEVKKPGSSVKVSCKASGYTFTFYNMHWVRQAPGQGLEWIGAIYPGNGDTSYNQKFKGKATITADKSTSTAYMELSSLRSDDTAVYYCARSTYYAGDWNFNNWGQGTLVTVSS
VL: DIQMTQSPSSLSASVGDRVTITCRASSSVSYIHWFQQKPGKAPKPLIYAASSLQSGVPSRFSGSGSGTDYTLTISSLQPEDFATYYCQQWTSNPPTFGGGTKLEIK
Mean Fluorescence Intensity (MFI) (human CD20 antigen [5]): 2070 MFI | Mean Fluorescence Intensity (MFI) (human CD20 antigen [7]): 338 MFI | Mean Fluorescence Intensity (MFI) (human CD20 antigen [8]): 140 MFI

B6: optimized humanized mAb 1238 (antibody, V domains shown)
VH: QVQLVQSGAEVKKPGSSVKVSCKASGYTFTSYNMHWVRQAPGQGLEWIGAIYPGNGDTSYNQKFKGKATITADKSTSTAYMELSSLRSDDTAVYYCARSTYYAGDWNFNDWGQGTLVTVSS
VL: DIQMTQSPSSLSASVGDRVTITCRASSSVSYIHWFQQKPGKAPKPLIYAASSLQSGVPSRFSGSGSGTDYTLTISSLQPEDFATYYCQQWTSNPPTFGGGTKLEIK
notes: as for B1
Mean Fluorescence Intensity (MFI) (human CD20 antigen [6]): 389 MFI | Mean Fluorescence Intensity (MFI) (human CD20 antigen [9]): 114 MFI

B7: optimized humanized mAb 1692 (antibody, V domains shown)
VH: QVQLVQSGAEVKKPGSSVKVSCKASGYTFTSYNMHWVRQAPGQGLEWIGAIYPGNGDTSYNQKFKGKATITADKSTSTAYMELSSLRSDDTAVYYCARSTYYAGDWNFGNWGQGTLVTVSS
VL: DIQMTQSPSSLSASVGDRVTITCRASSSVSYIHWFQQKPGKAPKPLIYAASSLQSGVPSRFSGSGSGTDYTLTISSLQPEDFATYYCQQWTSNPPTFGGGTKLEIK
Mean Fluorescence Intensity (MFI) (human CD20 antigen [5]): 1670 MFI | Mean Fluorescence Intensity (MFI) (human CD20 antigen [7]): 450 MFI | Mean Fluorescence Intensity (MFI) (human CD20 antigen [8]): 137 MFI

B8: optimized humanized mAb 1589 (antibody, V domains shown)
VH: QVQLVQSGAEVKKPGSSVKVSCKASGYTFTSYNMHWVRQAPGQGLEWIGAIYPGNGATSYNQKFKGKATITADKSTSTAYMELSSLRSDDTAVYYCARSTYYAGDWNFNNWGQGTLVTVSS
VL: DIQMTQSPSSLSASVGDRVTITCRASSSVSYIHWFQQKPGKAPKPLIYAASSLQSGVPSRFSGSGSGTDYTLTISSLQPEDFATYYCQQWTSNPPTFGGGTKLEIK
Mean Fluorescence Intensity (MFI) (human CD20 antigen [5]): 1030 MFI | Mean Fluorescence Intensity (MFI) (human CD20 antigen [7]): 345 MFI | Mean Fluorescence Intensity (MFI) (human CD20 antigen [8]): 140 MFI
